Reference: US20110059159A1
Each block holds one substance with its values, some of them ahead of it.

What was measured:
[1] = molecular target: Chemokine Receptor 5 (CCR5) with an engineered 1D4 epitope at the C-terminal tail (UniProt P51681); assay: sandwich ELISA, 2D7 capture, HRP-1D4 detection; CCR5 reconstituted into NABBs with POPC and zap1 (sample 7)
[2] = molecular target: Chemokine Receptor 5 (CCR5) with an engineered 1D4 epitope at the C-terminal tail (UniProt P51681); assay: sandwich ELISA, 2D7 capture, HRP-1D4 detection; CCR5 solubilised in 1% (w/v) DDM
[3] = molecular target: Chemokine Receptor 5 (CCR5) with an engineered 1D4 epitope at the C-terminal tail (UniProt P51681); assay: cell-based or functional assay
[4] = molecular target: holotransducin (Gt) (bovine) (UniProt P04695); assay: cell-based or functional assay
Chain of holotransducin (Gt) (bovine) (P04695 2-350, chain 1 of 3): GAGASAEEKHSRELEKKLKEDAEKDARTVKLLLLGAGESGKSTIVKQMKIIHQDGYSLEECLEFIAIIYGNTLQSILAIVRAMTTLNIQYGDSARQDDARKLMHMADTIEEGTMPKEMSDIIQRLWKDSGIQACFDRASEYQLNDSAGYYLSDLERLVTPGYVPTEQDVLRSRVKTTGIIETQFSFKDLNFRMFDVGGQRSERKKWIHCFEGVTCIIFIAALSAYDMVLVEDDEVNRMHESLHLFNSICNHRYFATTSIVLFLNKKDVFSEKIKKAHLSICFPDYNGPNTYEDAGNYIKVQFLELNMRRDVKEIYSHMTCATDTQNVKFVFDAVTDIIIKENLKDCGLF
Chain of holotransducin (Gt) (bovine) (P62871 2-340, chain 2 of 3, further chain): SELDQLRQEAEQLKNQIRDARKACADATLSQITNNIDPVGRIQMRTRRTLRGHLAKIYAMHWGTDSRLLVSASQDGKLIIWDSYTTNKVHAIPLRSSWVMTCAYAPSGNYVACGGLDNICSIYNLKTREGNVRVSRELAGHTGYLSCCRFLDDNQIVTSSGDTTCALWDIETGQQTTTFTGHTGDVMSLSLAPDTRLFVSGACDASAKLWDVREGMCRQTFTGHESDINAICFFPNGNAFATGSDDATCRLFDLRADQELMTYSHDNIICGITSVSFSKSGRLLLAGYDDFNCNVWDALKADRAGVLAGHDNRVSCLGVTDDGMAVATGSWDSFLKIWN
Chain of holotransducin (Gt) (bovine) (P02698 2-71, chain 3 of 3, further chain): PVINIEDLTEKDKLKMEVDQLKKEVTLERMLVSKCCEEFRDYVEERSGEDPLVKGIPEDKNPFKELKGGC

ELISA signal relative to sample 1 (% of sample 1) [1]: 92
ELISA signal relative to sample 1 (% of sample 1) [2]: 65
Substance: 2D7 antibody

enhancement of B-GTPγS binding to the G protein [3]: < 30%
Substance: RANTES (from UniProt P13501 24-91) (ligand)

apparent pseudo first-order rate constant (kobs) of transducin activation, 1 rho-NABB [4]: 0.006 s⁻¹
apparent pseudo first-order rate constant (kobs) of transducin activation, 2rho-NABB [4]: 0.003 s⁻¹
Substance: rhodopsin incorporated in NABBs (from UniProt P02699 1-348) (receptor)
